From US20120316071A1 (published 2012) come the findings set out here.

Numbering of substitutions follows the chain as printed. In names and notes the source's numbering stands.

Experiment [1] addresses T1, Recombinant Human DLL4 (R&D Systems Cat#1506-D4/CF) (human, UniProt Q9NR61 27-524).
T1 construct: Bought recombinant protein; also called delta-like protein 4; rHuman DLL4
The experiment in a line: ECL (MSD) binding assay, DLL4 signal divided by blank, repeat experiment.

Experiment [2] deals with T1, Recombinant Human DLL4 (R&D Systems …). The experiment in a line: ECL (MSD) binding assay, immobilised DLL4, repeat experiment.
For experiment [3], the target named is T2, rHuman IGF-1 sR (insulin-like growth factor-1 soluble receptor), CF (R&D Systems Cat#391-GR) (human, UniProt P08069 31-932).
T2 construct: Bought recombinant soluble receptor
The experiment in a line: ECL Multispot (MSD) assay, antigen spotted on plate, 10 nM Fab.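 Further: purified Fab bound to antigen spots for 1 h at 20 °C, then TAG detection antibody, electrochemiluminescence compared with each well's blank, ratio of 4 or more marks a hit.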

Experiment [4] has as its target T3, rHuman P-Cadherin/Fc Chimera, CF (R&D Systems Cat#861-PC) (human, UniProt P22223 108-654).
T3 construct: Bought recombinant protein
The experiment is described as above.

Experiment [5] has as its target T4, rHuman CD44/Fc Chimera, CF (R&D Systems Cat#3660-CD) (human, UniProt P16070 21-220).
T4 construct: Bought recombinant protein
The description is as above.

The target in experiment [6] is T1, Recombinant Human DLL4 (R&D Systems …). The description is as above.
In experiment [7] the target is T5, rHuman Erythropoietin R/Fc Chimera, CF (R&D Systems Cat#963-ER) (human, UniProt P19235 25-250).
T5 construct: Bought recombinant protein; also called EPO R; EPO R/Fc
T5 sequence (looked up): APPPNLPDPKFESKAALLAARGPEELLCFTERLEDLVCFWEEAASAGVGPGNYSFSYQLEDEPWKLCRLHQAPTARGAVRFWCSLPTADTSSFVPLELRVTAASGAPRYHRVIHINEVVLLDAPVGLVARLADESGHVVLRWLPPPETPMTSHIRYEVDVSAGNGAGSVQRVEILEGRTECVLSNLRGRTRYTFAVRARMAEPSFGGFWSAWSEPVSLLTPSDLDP
Described as above.

Experiment [8] concerns the target T6, rHuman EGF R/Fc Chimera, CF (R&D Systems Cat#344-ER) (human, UniProt P00533 25-645).
T6 construct: Bought recombinant protein
The experiment is described as above.

Experiment [9] addresses T7, rHuman HGF R/c-MET/Fc Chimera, CF (R&D Systems Cat#358-MT/CF) (human, UniProt P08581 25-932).
T7 construct: Bought recombinant protein; also called HGF R/Fc
Described as above.

The target of experiment [10] is T8, rHuman ErbB2/Fc Chimera, CF (R&D Systems Cat#1129-ER) (human, UniProt P04626 23-652).
T8 construct: Bought recombinant protein
The experiment is described as above.

The target of experiment [11] is T9, Recombinant Human DLL4 (R&D Systems Cat#1506-D4/CF) (human, UniProt Q9NR61 27-524).
T9 construct: bought recombinant protein; also called rHuman DLL4; delta-like protein 4
The experiment in a line: SPR. On the technique in general: SPR reads the build-up and loss of mass on a sensor chip optically.

The target in experiment [12] is T9, Recombinant Human DLL4 (R&D Systems …). Briefly: ELISA titration, 3-fold dilutions from 20 nM Fab. (In general: ELISA stands for enzyme-linked immunosorbent assay.)
For experiment [13], the target named is T10, full-length human DLL4 expressed on the surface of CHO cells (human, UniProt Q9NR61 26-685).
T10 construct: also called CHO-DLL4; DLL4-expressing CHO cells
The experiment in a line: competition, flow cytometry; 250 nM biotinylated Notch-Fc as competitor on CHO-DLL4 cells, streptavidin-PE. (In general: A flow cytometer gives signals particle by particle.)

The target of experiment [14] is T11, rHuman ErbB2/Fc Chimera, CF (R&D Systems Cat#1129-ER) (human, UniProt P04626 23-652).
T11 construct: Bought from R&D Systems; also called human epidermal growth factor 2 receptor; Fc part of the bought chimera not given
The experiment in a line: ECL multispot (MSD) binding assay; antigen spotted on plate, Fab in solution, Ru-labelled anti-kappa detection.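 Further: purified Fab in 1% BSA TBST incubated 1 h at 20 °C with shaking, signal compared with each well's blank, signal/blank ratio of 4 or above counted as binder.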

The target in experiment [15] is T12, rHuman EGF R/Fc Chimera, CF (R&D Systems Cat#344-ER) (human, UniProt P00533 25-645).
T12 construct: Bought from R&D Systems; also called epidermal growth factor receptor; Fc part of the bought chimera not given
The description is as above.

Experiment [16] has as its target T13, Recombinant Human DLL4 (R&D Systems Cat#1506-D4/CF) (human, UniProt Q9NR61 27-524).
T13 construct: Bought from R&D Systems; also called delta-like protein 4; rHuman DLL4
Described as above.

Experiment [17] has as its target T14, rHuman HGF R/c-MET/Fc Chimera, CF (R&D Systems Cat#358-MT/CF) (human, UniProt P08581 25-932).
T14 construct: Bought from R&D Systems; also called HGF R/Fc; hepatocyte growth factor receptor; Fc part of the bought chimera not given
The description is as above.

The target in experiment [18] is T15, rHuman P-Cadherin/Fc Chimera, CF (R&D Systems Cat#861-PC) (human, UniProt P22223 108-654).
T15 construct: Bought from R&D Systems; Fc part of the bought chimera not given
Described as above.

Experiment [19] addresses T16, rHuman IGF-1 sR, CF (R&D Systems Cat#391-GR) (human, UniProt P08069 31-932).
T16 construct: Bought from R&D Systems as a soluble receptor; also called insulin-like growth factor-1 soluble receptor
The description is as above.

B1: Fab VH1-46_IGHD6-6*01_IGHJ1*01 S102A/S103P/S104F/H111F F29A & L6_IGKJ1*01 (Fab, V domains shown)
VH: QVQLVQSGAEVKKPGASVKVSCKASGYTATSYYMHWVRQAPGQGLEWMGIINPSGGSTSYAQKFQGRVTMTRDTSTSTVYMELSSLRSEDTAVYYCAREEYAPFSAEYFQFWGQGTLVTVSS
VL: not shown
notes: Fab as for m1 (CH1 with His6/Flag tags, kappa CL); also called APFF F29A
Regarding B1, the Signal/Noise in experiment [1] is 238. Also, the ECL signal in experiment [2] is 109000; in [3], 315; in experiment [4], 276; in experiment [5], 414; in [6], 80700; in experiment [7], 466. Besides, the ECL signal in experiment [8] worked out at 293; in experiment [9], 404; in experiment [10], 244.

B2: Fab VH1-46_IGHD6-6*01_IGHJ1*01 S102A/S103P/S104F/H111F I51V/N52L/S54T/G56H (H:APFF VLTH) & L6_IGKJ1*01 S28N/S30D/S31H S52L/A55S (L:NDH LS) (Fab, V domains shown)
VH: B1 VH with A29F, I51V, N52L, S54T, G56H
VL: EIVLTQSPATLSLSPGERATLSCRASQNVDHYLAWYQQKPGQAPRLLIYDALNRSTGIPARFSGSGSGTDFTLTISSLEPEDFAVYYCQQRSNWPPWTFGQGTKVEIKR
notes: Fab; also called H:APFF VLTH & L:NDH LS
In the case of B2, the “fold binding affinity against the parent Fab” value in [11] was found to be 430 fold. Moreover, the “fold binding affinity against the antibody mutants with heavy chain H:APFF ALTH” value in experiment [12] was around 10 fold.

B3: Fab VH1-46_IGHD6-6*01_IGHJ1*01 S102A/S103P/S104F/H111F I51V/N52L/S54T/G56H & L6_IGKJ1*01 S28N/S30D/S31H S52L/A55S (Fab, V domains shown)
VH: B1 VH with A29F, I51V, N52L, S54T, G56H
VL: B2 VL
notes: Fab; Constant parts come from Plasmid A (CH1, His6, Flag) and Plasmid C (kappa CL); also called H:APFF VLTH & L:NDH LS
Regarding B3, in experiment [13], the “signal of biotinylated Notch-Fc bound to CHO-DLL4 cells at 2 nM Fab (read-out not given)” value came out at 117 and the “signal of biotinylated Notch-Fc bound to CHO-DLL4 cells at 10 nM Fab (read-out not given)” value amounted to 30.

B4: Fab VH1-46_IGHD6-6*01_IGHJ1*01 S102A/S103P/S104F/H111F & L6_IGKJ1*01 (Fab, V domains shown)
VH: B1 VH with A29F
VL: not shown
notes: Tested as a Fab made in E. coli; The heavy chain vector (Plasmid A) adds CH1 with His6 and Flag tags; The light chain vector (Plasmid C) adds kappa CL; also called APFF; H:APFF & L:wt
As for B4, the ECL signal in experiment [14] is 263; in [15], 279; in [16], 197000; in experiment [17], 252; in experiment [18] it was 318; in experiment [19], 342.

B5: Fab VH5-51_IGHD5-18*01>3_IGHJ4*01 G100K/G104T/G24T/S28R/G35V (KT TRV) & V3-4_IGLJ1*01 (Fab, V domains shown)
VH: EVQLVQSGAEVKKPGESLKISCKTSGYRFTSYWIVWVRQMPGKGLEWMGIIYPGDSDTRYSPSFQGQVTISADKSISTAYLQWSSLKASDTAMYYCARRKYSYTYDYFDYWGQGTLVTVSS
VL: QTVVTQEPSFSVSPGGTVTLTCGLSSGSVSTSYYPSWYQQTPGQAPRTLIYSTNTRSSGVPDRFSGSILGNKAALTITGAQADDESDYYCVLYMGSGISYVFGTGTKVTVL
notes: Fab; also called H:KT TRV & L:wt; H:KT TRV & V3-4_IGLJ1*01
B5: the “fold binding affinity against the parental Fab” value in [11] came out at 130 fold.

B6: Fab VH5-51_IGHD5-18*01>3_IGHJ4*01 G100K/G104T G24T/S28R/G35V & V3-4_IGLJ1*01 (Fab, V domains shown)
VH: B5 VH
VL: B5 VL
notes: Fab; Constant parts come from Plasmid A (CH1, His6, Flag) and Plasmid E (lambda CL); also called H:KT TRV & L:wt; H:KT TRV & V3-4_IGLJ1*01
As to B6, in [13], the “signal of biotinylated Notch-Fc bound to CHO-DLL4 cells at 2 nM Fab (read-out not given)” value is 448 and the “signal of biotinylated Notch-Fc bound to CHO-DLL4 cells at 10 nM Fab (read-out not given)” value worked out at 244.

B7: Fab VH5-51_IGHD5-18*01>3_IGHJ4*01 G100K/G104T G24T/S28R/G35V (H:KT TRV) & V3-4_IGLJ1*01 V91L/S96P S52G (L:LP S52G) (Fab, V domains shown)
VH: B5 VH
VL: B5 VL with S52G, V91L, S96P
notes: Fab; also called H:KT TRV & L:LP S52G
For the molecule B7, in [11], the “fold binding affinity against the parental Fab” value amounted to 1000 fold.

B8: Fab VH5-51_IGHD5-18*01>3_IGHJ4*01 G100K/G104T G24T/S28R/G35V & V3-4_IGLJ1*01 V91L/S96P S52G (Fab, V domains shown)
VH: B5 VH
VL: B5 VL with S52G, V91L, S96P
notes: Fab; Constant parts come from Plasmid A (CH1, His6, Flag) and Plasmid E (lambda CL); also called H:KT TRV & L:LP S52G
Take B8: in experiment [13], the “signal of biotinylated Notch-Fc bound to CHO-DLL4 cells at 2 nM Fab (read-out not given)” value was 250 and the “signal of biotinylated Notch-Fc bound to CHO-DLL4 cells at 10 nM Fab (read-out not given)” value was determined as 190.

B9: Fab VH5-51_IGHD5-18*01>3_IGHJ4*01 G100K/G104T G24T/S28R/G35V (H:KT TRV) & V3-4_IGLJ1*01 V91L/S96P (L:LP) (Fab, V domains shown)
VH: B5 VH
VL: B5 VL with V91L, S96P
notes: Fab; also called H:KT TRV & L:LP
In the case of B9, the “fold binding affinity against the parental Fab” value in experiment [11] amounted to 1000 fold.
